Laboratory results: the supplement of paper PMC10065799, “High-throughput profiling of sequence recognition by tyrosine kinases and SH2 domains using bacterial peptide display” (eLife, 2023)

The sequences below were run against EPHB1 (UniProt P54762) (assay: phosphorylation enrichment, bacterial display (enrichment ratio); higher = better substrate or ligand; peptides without Tyr show the background).
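Further: 11-residue human phosphosite peptides and single-mutation variants displayed on the E. coli surface, counted by deep sequencing, each peptide's frequency after selection divided by its frequency in the unselected input library; frequency after pTyr selection over input frequency; kinase dosed for 20-30% of maximal phosphorylation in three min.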

Sequence of EPHB1 (P54762 whole entry, looked up): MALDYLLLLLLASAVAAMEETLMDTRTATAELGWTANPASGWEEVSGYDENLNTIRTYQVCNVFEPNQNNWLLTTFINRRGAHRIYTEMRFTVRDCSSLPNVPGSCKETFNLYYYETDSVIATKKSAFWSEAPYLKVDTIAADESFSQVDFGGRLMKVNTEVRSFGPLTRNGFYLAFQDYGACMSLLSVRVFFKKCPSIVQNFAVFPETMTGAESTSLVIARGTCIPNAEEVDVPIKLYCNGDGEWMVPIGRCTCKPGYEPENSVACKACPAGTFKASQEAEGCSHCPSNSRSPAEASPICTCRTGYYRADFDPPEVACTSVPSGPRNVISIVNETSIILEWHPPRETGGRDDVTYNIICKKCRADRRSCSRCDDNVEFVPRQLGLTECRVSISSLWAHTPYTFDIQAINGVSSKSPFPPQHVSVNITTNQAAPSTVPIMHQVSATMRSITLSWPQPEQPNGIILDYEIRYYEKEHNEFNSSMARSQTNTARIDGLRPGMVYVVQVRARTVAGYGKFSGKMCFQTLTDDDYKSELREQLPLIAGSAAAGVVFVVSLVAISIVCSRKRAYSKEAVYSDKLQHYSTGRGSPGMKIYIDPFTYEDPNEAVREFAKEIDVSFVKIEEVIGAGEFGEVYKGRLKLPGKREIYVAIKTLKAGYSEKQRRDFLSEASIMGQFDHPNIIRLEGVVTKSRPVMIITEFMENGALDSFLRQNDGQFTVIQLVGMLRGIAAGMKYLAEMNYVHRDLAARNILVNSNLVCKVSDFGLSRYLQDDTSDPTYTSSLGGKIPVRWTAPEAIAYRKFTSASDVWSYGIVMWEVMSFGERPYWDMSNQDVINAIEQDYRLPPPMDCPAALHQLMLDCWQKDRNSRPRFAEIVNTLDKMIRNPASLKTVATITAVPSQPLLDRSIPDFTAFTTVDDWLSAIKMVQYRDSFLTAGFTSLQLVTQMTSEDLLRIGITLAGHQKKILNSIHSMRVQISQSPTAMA

| Sequence | phosphorylation enrichment |
| --- | --- |
| RTLIRYAKLGN [BEST1_Y131_N133K] | 0.854 |
| DDEENYENVPR [FCRL3_Y722] | 0.619 |
| TDKLFYIFTPG [SLC27A4_Y243_S247P_YF] | 0.776 |
| MASISYDFCRV [BST2_Y6_T4I_YF] | 0.692 |
| KIVYVYVKKRS [DNAI2_Y7_E2K] | 0.577 |
| FKDGQYWIRGR [ACSF3_Y466] | 0.317 |
| DFFDLYGGEKL [PTPN11_Y66_F71L_YF] | 0.743 |
| REIIAYQPFGK [PRKCG_Y529_P524R_YF] | 0.51 |
| LIDGFYRLTAD [JAK2_Y373_YF] | 0.747 |
| QRRYVYYYSYL [PTEN_Y176] | 1.85 |
| SKLTIYDGRPS [MTM1_Y277_A279G] | 0.367 |
| TSFQMYDKGLV [IARS2_Y231_F227S_YF] | 0.596 |
| SVICTYSPALN [TP53_Y126_T123I] | 0.59 |
| ILTLKYLIEHG [ACTG1_Y69_P70L] | 0.689 |
| WLFFRYLAIGC [ATP2A2_Y836] | 0.633 |
| LINLKYSVEEE [PCDH19_Y27] | 0.755 |

The sequences below were run against Fes (UniProt P07332) in the same assay as above.
Sequence of Fes (P07332 whole entry, looked up): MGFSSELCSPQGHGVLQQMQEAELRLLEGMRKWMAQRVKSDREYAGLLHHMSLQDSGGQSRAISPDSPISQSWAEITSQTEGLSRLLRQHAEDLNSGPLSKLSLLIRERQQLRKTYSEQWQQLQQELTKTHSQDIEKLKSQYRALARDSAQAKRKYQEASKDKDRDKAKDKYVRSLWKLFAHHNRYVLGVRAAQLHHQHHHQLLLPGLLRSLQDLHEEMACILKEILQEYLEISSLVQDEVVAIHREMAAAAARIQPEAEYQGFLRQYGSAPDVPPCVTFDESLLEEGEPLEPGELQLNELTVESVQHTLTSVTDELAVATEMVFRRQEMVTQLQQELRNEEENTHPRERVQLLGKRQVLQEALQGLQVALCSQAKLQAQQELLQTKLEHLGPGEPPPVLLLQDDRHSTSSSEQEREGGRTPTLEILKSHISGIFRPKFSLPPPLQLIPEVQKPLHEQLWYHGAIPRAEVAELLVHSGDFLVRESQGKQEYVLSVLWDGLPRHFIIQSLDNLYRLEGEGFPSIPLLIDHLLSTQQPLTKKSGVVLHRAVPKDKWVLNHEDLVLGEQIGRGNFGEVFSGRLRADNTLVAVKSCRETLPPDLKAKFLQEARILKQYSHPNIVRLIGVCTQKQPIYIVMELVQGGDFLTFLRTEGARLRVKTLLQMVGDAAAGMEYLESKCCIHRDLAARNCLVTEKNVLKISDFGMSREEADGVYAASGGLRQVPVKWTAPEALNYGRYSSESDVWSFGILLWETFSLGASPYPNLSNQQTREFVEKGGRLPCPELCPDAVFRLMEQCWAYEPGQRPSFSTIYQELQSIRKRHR

| Sequence | phosphorylation enrichment |
| --- | --- |
| RTLIRYAKLGN [BEST1_Y131_N133K] | 1.27 |
| DDEENYENVPR [FCRL3_Y722] | 1.19 |
| TDKLFYIFTPG [SLC27A4_Y243_S247P_YF] | 1.49 |
| MASISYDFCRV [BST2_Y6_T4I_YF] | 1.17 |
| KIVYVYVKKRS [DNAI2_Y7_E2K] | 1.17 |
| FKDGQYWIRGR [ACSF3_Y466] | 0.862 |
| DFFDLYGGEKL [PTPN11_Y66_F71L_YF] | 1.92 |
| REIIAYQPFGK [PRKCG_Y529_P524R_YF] | 0.635 |
| LIDGFYRLTAD [JAK2_Y373_YF] | 1.51 |
| QRRYVYYYSYL [PTEN_Y176] | 1.32 |
| SKLTIYDGRPS [MTM1_Y277_A279G] | 0.674 |
| TSFQMYDKGLV [IARS2_Y231_F227S_YF] | 0.846 |
| SVICTYSPALN [TP53_Y126_T123I] | 1.44 |
| ILTLKYLIEHG [ACTG1_Y69_P70L] | 1.32 |
| WLFFRYLAIGC [ATP2A2_Y836] | 1.55 |
| LINLKYSVEEE [PCDH19_Y27] | 2.46 |

What follows are sequences tested against FGFR3 (UniProt P22607) in the same assay as above.
Sequence of FGFR3 (P22607 whole entry, looked up): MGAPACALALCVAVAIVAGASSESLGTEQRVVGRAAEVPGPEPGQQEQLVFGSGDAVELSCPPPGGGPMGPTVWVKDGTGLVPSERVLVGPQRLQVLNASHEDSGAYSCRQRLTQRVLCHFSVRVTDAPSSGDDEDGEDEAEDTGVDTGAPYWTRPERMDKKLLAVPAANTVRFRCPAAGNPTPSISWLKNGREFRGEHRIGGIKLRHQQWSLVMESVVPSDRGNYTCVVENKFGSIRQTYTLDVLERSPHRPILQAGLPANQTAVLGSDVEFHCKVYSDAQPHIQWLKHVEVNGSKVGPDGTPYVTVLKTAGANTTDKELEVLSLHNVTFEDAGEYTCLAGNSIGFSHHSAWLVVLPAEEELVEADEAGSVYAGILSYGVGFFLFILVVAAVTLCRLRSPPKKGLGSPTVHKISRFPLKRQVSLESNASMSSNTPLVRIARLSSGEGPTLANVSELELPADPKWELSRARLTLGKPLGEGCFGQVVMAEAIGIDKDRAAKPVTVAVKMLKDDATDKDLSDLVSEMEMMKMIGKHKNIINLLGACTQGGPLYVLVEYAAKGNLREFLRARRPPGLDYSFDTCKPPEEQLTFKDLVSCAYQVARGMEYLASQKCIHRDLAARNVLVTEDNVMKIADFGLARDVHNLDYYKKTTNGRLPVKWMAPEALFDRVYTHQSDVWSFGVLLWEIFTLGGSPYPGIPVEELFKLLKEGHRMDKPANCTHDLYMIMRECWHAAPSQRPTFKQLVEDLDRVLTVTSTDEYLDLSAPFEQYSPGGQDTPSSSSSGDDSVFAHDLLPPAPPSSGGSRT

| Sequence | phosphorylation enrichment |
| --- | --- |
| RTLIRYAKLGN [BEST1_Y131_N133K] | 0.612 |
| DDEENYENVPR [FCRL3_Y722] | 0.773 |
| TDKLFYIFTPG [SLC27A4_Y243_S247P_YF] | 1.11 |
| MASISYDFCRV [BST2_Y6_T4I_YF] | 0.824 |
| KIVYVYVKKRS [DNAI2_Y7_E2K] | 0.654 |
| FKDGQYWIRGR [ACSF3_Y466] | 0.482 |
| DFFDLYGGEKL [PTPN11_Y66_F71L_YF] | 0.746 |
| REIIAYQPFGK [PRKCG_Y529_P524R_YF] | 0.398 |
| LIDGFYRLTAD [JAK2_Y373_YF] | 0.991 |
| QRRYVYYYSYL [PTEN_Y176] | 4.17 |
| SKLTIYDGRPS [MTM1_Y277_A279G] | 0.508 |
| TSFQMYDKGLV [IARS2_Y231_F227S_YF] | 0.82 |
| SVICTYSPALN [TP53_Y126_T123I] | 0.779 |
| ILTLKYLIEHG [ACTG1_Y69_P70L] | 0.839 |
| WLFFRYLAIGC [ATP2A2_Y836] | 0.798 |
| LINLKYSVEEE [PCDH19_Y27] | 0.895 |

What follows are sequences tested against MERTK (UniProt Q12866) in the same assay as above.
Sequence of MERTK (Q12866 whole entry, looked up): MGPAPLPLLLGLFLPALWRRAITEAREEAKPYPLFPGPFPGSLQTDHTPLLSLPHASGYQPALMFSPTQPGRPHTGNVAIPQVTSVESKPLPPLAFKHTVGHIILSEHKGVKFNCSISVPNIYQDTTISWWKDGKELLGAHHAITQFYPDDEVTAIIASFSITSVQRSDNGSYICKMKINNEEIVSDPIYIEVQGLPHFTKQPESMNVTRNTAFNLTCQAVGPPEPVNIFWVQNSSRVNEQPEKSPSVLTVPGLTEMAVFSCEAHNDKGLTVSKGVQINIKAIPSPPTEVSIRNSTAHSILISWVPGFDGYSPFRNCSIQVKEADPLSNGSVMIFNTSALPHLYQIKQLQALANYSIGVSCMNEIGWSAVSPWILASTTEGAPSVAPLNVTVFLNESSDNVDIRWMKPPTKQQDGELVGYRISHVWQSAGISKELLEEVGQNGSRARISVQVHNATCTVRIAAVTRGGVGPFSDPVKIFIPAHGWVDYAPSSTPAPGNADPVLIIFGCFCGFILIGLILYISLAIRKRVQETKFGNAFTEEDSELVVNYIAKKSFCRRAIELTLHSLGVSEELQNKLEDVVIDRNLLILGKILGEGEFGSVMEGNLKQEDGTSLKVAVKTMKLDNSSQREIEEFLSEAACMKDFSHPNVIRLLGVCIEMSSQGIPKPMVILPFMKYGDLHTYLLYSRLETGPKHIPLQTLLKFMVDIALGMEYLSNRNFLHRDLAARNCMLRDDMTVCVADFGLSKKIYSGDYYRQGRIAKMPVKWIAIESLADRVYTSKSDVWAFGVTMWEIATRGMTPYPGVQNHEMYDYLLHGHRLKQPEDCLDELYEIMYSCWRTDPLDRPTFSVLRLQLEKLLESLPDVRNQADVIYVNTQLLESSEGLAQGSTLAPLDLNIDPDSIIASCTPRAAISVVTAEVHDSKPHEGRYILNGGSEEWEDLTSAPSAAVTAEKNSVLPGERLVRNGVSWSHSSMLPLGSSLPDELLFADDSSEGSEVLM

| Sequence | phosphorylation enrichment |
| --- | --- |
| RTLIRYAKLGN [BEST1_Y131_N133K] | 1.02 |
| DDEENYENVPR [FCRL3_Y722] | 0.45 |
| TDKLFYIFTPG [SLC27A4_Y243_S247P_YF] | 1.72 |
| MASISYDFCRV [BST2_Y6_T4I_YF] | 0.653 |
| KIVYVYVKKRS [DNAI2_Y7_E2K] | 0.507 |
| FKDGQYWIRGR [ACSF3_Y466] | 0.379 |
| DFFDLYGGEKL [PTPN11_Y66_F71L_YF] | 0.9 |
| REIIAYQPFGK [PRKCG_Y529_P524R_YF] | 0.305 |
| LIDGFYRLTAD [JAK2_Y373_YF] | 0.741 |
| QRRYVYYYSYL [PTEN_Y176] | 9.64 |
| SKLTIYDGRPS [MTM1_Y277_A279G] | 0.463 |
| TSFQMYDKGLV [IARS2_Y231_F227S_YF] | 0.438 |
| SVICTYSPALN [TP53_Y126_T123I] | 0.438 |
| ILTLKYLIEHG [ACTG1_Y69_P70L] | 0.463 |
| WLFFRYLAIGC [ATP2A2_Y836] | 0.482 |
| LINLKYSVEEE [PCDH19_Y27] | 0.583 |
